Experimental data from patent US20230212319A1, “NOVEL ANTIGEN BINDING DOMAINS AND SYNTHETIC ANTIGEN RECEPTORS INCORPORATING THE SAME” (University of Southern California, priority 2020, published 2023).

B1: 22113 (protein)
chain: MALPVTALLLPLALLLHAARPDIQMTQSPSSLSASVGDRVTITCKASDHINNWLAWYQQKPGQAPKLLIYGATTLETGVPSRFSGSGSGTDYTLTISSLQPEDFATYYCQQSWNTPWTFGQGTKLEIKRLEDLKNVFPPEVAVFEPSKAEIAHTQKATLVCLATGFYPDHVELSWWVNGKEVHSGVCTDPQPLKEQPALNDSRYCLSSRLRVSATFWQNPRNHFRCQVQFYGLSENDEWTQDRAKPVTQIVSAEAWGRADCGITSASYHQGVLSATILYEILLGKATLYAVLVSALVLMAMVKRKDSRGRAKRSGSGATNFSLLKQAGDVEENPGPTSMDWIWRILFLVGAATGAHSGPQVQLQESGGGLAQAGGSLRLSCAASGRTFSMGWFRQAPGKEREFVAAITYSGGSPYYASSVRGRFTISRDNAKNTVYLQMNSLKPEDTAVYYCAANPTYGSDWNAENWGQGTQVTVSSGSGGGGSGGGGSGGGGSFEQVQLQQPGAELVKPGASVKMSCKASGYAFSSYWINWMKQKPGQGLEWIGQIYPGDGDTNYNGKFKGRATLTADTSSSTAYMQLSSLTSEDSAVYFCARSITTVVGCAMDYWGQGTSVTVSSTRIQNPDPAVYQLRDSKSSDKSVCLFTDFDSQTNVSQSKDSDVYITDKCVLDMRSMDFKSNSAVAWSNKSDFACANAFNNSIIPEDTFFPSSDVPCDVKLVEKSFETDTNLNFQNLSVIGFRILLLKVAGFNLLMTLRLWSSRAKRSGSGVKQTLNFDLLKLAGDVESNPGPSRGHMTEYKPTVRLATRDDVPRAVRTLAAAFADYPATRHTVDPDRHIERVTELQELFLTRVGLDIGKVWVADDGAAVAVWTTPESVEAGAVFAEIGPRMAELSGSRLAAQQQMEGLLAPHRPKEPAWFLATVGVSPDHQGKGLGSAVVLPGVEAAERAGVPAFLETSAPRNLPFYERLGFTVTADVEVPEGPRTWCMTRKPGA
B2: 22120 (protein)
chain: MALPVTALLLPLALLLHAARPDIQMTQSPSSLSASVGDRVTITCKASDHINNWLAWYQQKPGQAPKLLIYGATTLETGVPSRFSGSGSGTDYTLTISSLQPEDFATYYCQQSWNTPWTFGQGTKLEIKRLEGQPKANPTVTLFPPSSEELQANKATLVCLISDFYPGAVTVAWKADGSPVKAGVETTKPSKQSNNKYAASSYLSLTPEQWKSHRSYSCQVTHEGSTVEKTVAPTECSGRADCGFTSESYQQGVLSATILYEILLGKATLYAVLVSALVLMAMVKRKDSRGRAKRSGSGATNFSLLKQAGDVEENPGPTSATMDWIWRILFLVGAATGAHSGPQVQLQESGGGLAQAGGSLRLSCAASGRTFSMGWFRQAPGKEREFVAAITYSGGSPYYASSVRGRFTISRDNAKNTVYLQMNSLKPEDTAVYYCAANPTYGSDWNAENWGQGTQVTVSSGSGGGGSGGGGSGGGGSFEQVQLQQPGAELVKPGASVKMSCKASGYAFSSYWINWMKQKPGQGLEWIGQIYPGDGDTNYNGKFKGRATLTADTSSSTAYMQLSSLTSEDSAVYFCARSITTVVGCAMDYWGQGTSVTVSSTRASTKGPSVFPLAPSSKSTSGGTAALGCLVKDYFPEPVTVSWNSGALTSGVHTFPAVLQSSGLYSLSSVVTVPSSSLGTQTYICNVNHKPSNTKVDKRVEPKSCIPEDTFFPSPESSCDVKLVEKSFETDTNLNFQNLSVIGFRILLLKVAGFNLLMTLRLWSSRAKRSGSGVKQTLNFDLLKLAGDVESNPGPSRGHMTEYKPTVRLATRDDVPRAVRTLAAAFADYPATRHTVDPDRHIERVTELQELFLTRVGLDIGKVWVADDGAAVAVWTTPESVEAGAVFAEIGPRMAELSGSRLAAQQQMEGLLAPHRPKEPAWFLATVGVSPDHQGKGLGSAVVLPGVEAAERAGVPAFLETSAPRNLPFYERLGFTVTADVEVPEGPRTWCMTRKPGA
B3: 22121 (protein)
chain: MALPVTALLLPLALLLHAARPDIQMTQSPSSLSASVGDRVTITCKASDHINNWLAWYQQKPGQAPKLLIYGATTLETGVPSRFSGSGSGTDYTLTISSLQPEDFATYYCQQSWNTPWTFGQGTKLEIKRLEGQPKANPTVTLFPPSSEELQANKATLVCLISDFYPGAVTVAWKADGSPVKAGVETTKPSKQSNNKYAASSYLSLTPEQWKSHRSYSCQVTHEGSTVEKTVAPTECSPIKTDVITMDPKDNCSKDANDTLLLQLTNTSAYYMYLLLLLKSVVYFAIITCCLLRRTAFCCNGEKSRAKRSGSGATNFSLLKQAGDVEENPGPTSATMDWIWRILFLVGAATGAHSGPQVQLQESGGGLAQAGGSLRLSCAASGRTFSMGWFRQAPGKEREFVAAITYSGGSPYYASSVRGRFTISRDNAKNTVYLQMNSLKPEDTAVYYCAANPTYGSDWNAENWGQGTQVTVSSGSGGGGSGGGGSGGGGSFEQVQLQQPGAELVKPGASVKMSCKASGYAFSSYWINWMKQKPGQGLEWIGQIYPGDGDTNYNGKFKGRATLTADTSSSTAYMQLSSLTSEDSAVYFCARSITTVVGCAMDYWGQGTSVTVSSTRASTKGPSVFPLAPSSKSTSGGTAALGCLVKDYFPEPVTVSWNSGALTSGVHTFPAVLQSSGLYSLSSVVTVPSSSLGTQTYICNVNHKPSNTKVDKRVEPKSCEVKTDSTDHVKPKETENTKQPSKSCHKPKAIVHTEKVNMMSLTVLGLRMLFAKTVAVNFLLTAKLFFLRAKRSGSGVKQTLNFDLLKLAGDVESNPGPSRGHMTEYKPTVRLATRDDVPRAVRTLAAAFADYPATRHTVDPDRHIERVTELQELFLTRVGLDIGKVWVADDGAAVAVWTTPESVEAGAVFAEIGPRMAELSGSRLAAQQQMEGLLAPHRPKEPAWFLATVGVSPDHQGKGLGSAVVLPGVEAAERAGVPAFLETSAPRNLPFYERLGFTVTADVEVPEGPRTWCMTRKPGA
B4: 22167 (protein)
chain: MALPVTALLLPLALLLHAARPEVQLQESGGGLVQPGGSLRLSCAASGRTFSSLFMGWVRQAPGKGLELVSAISRYSLYTYYADSVKGRFTISRDNAKNTLYLQMNSLRPEDTAVYYCASKLEYTSNDYDSWGQGTLVTVSSGTGGGGSGGGGSGGGGSEFDIQMTQSPSSLSASVGDRVTITCKASDHINNWLAWYQQKPGQAPKLLIYGATTLETGVPSRFSGSGSGTDYTLTISSLQPEDFATYYCQQSWNTPWTFGQGTKLEIKRLEIQNPDPAVYQLRDSKSSDKSVCLFTDFDSQTNVSQSKDSDVYITDKCVLDMRSMDFKSNSAVAWSNKSDFACANAFNNSIIPEDTFFPSSDVPCDVKLVEKSFETDTNLNFQNLSVIGFRILLLKVAGFNLLMTLRLWSSRAKRSGSGVKQTLNFDLLKLAGDVESNPGPTSATMDWIWRILFLVGAATGAHSGPQVQLQESGGGLAQAGGSLRLSCAASGRTFSMGWFRQAPGKEREFVAAITYSGGSPYYASSVRGRFTISRDNAKNTVYLQMNSLKPEDTAVYYCAANPTYGSDWNAENWGQGTQVTVSSGSGGGGSGGGGSGGGGSFEQVQLQQPGAELVKPGASVKMSCKASGYAFSSYWINWMKQKPGQGLEWIGQIYPGDGDTNYNGKFKGRATLTADTSSSTAYMQLSSLTSEDSAVYFCARSITTVVGCAMDYWGQGTSVTVSSTREDLKNVFPPEVAVFEPSKAEIAHTQKATLVCLATGFYPDHVELSWWVNGKEVHSGVCTDPQPLKEQPALNDSRYCLSSRLRVSATFWQNPRNHFRCQVQFYGLSENDEWTQDRAKPVTQIVSAEAWGRADCGITSASYHQGVLSATILYEILLGKATLYAVLVSALVLMAMVKRKDSRGRAKRSGSGATNFSLLKQAGDVEENPGPSRGHMTEYKPTVRLATRDDVPRAVRTLAAAFADYPATRHTVDPDRHIERVTELQELFLTRVGLDIGKVWVADDGAAVAVWTTPESVEAGAVFAEIGPRMAELSGSRLAAQQQMEGLLAPHRPKEPAWFLATVGVSPDHQGKGLGSAVVLPGVEAAERAGVPAFLETSAPRNLPFYERLGFTVTADVEVPEGPRTWCMTRKPGA

The molecules below were run on RAJI cells (assay: JNG assay, co-culture with RAJI cells). Conditions: JNG cells expressing construct, co-culture with Raji.
Format: cell-based
How it was run: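 Read-out is NFAT-driven GFP measured by flow cytometry after ~4–18 h co-culture of SAR-expressing JNG cells with target cells (E:T about 1:2). SARs were introduced by lentiviral spinfection and selected with puromycin or blasticidin when possible; scores (+/- to 5+ ≈ 5–50% GFP+) are relative to parental JNG cells.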
In the case of B1, the “NFAT-GFP ASSAY: Raji” value is reported as 5+ (refer to approximately 5%, 10%, 20%, 30%, 40% and 50% GFP positive cells). With B2 the “NFAT-GFP ASSAY: Raji” value was 4+ (refer to approximately 5%, 10%, 20%, 30%, 40% and 50% GFP positive cells). B3 was tested, and the “NFAT-GFP ASSAY: Raji” value was 5+ (refer to approximately 5%, 10%, 20%, 30%, 40% and 50% GFP positive cells). B4 was tested, and the “NFAT-GFP ASSAY: Raji” value was “+ (refer to approximately 5%, 10%, 20%, 30%, 40% and 50% GFP positive cells)”.

These molecules were tested on RAJI-CD19-KO cells (assay: JNG assay, co-culture with RAJI-CD19-KO cells). Conditions: co-culture with Raji-CD19-KO.
Format: cell-based
Description: Cellular supernatant is collected and assayed for the induction of cytokines (e.g., IL2).
JNG (Jurkat cells expressing EGFP under an NFAT promoter) were infected with lentiviral vectors encoding different single chain and multi-chain SARs by spinfection in the presence of 8 µg/ml of Polybrene® (Sigma, Catalog no. H9268). The Jurkat-NFAT-GFP cells are engineered in such a way that the IL-2 promoter, which carries NFAT binding sites, is cloned upstream of the GFP gene. These cells have been used to study signaling via TCR and CAR. The different SARs were stably expressed in Jurkat NFAT-GFP cells by lentiviral mediated gene transfer, followed by selection with puromycin or blasticidin. No drug selection was used in case the construct lacked an antibiotic resistance gene. The SAR-expressing Jurkat-NFAT-GFP cells were cocultured with the target cells at E:T ratio of approximately 1:2 for approximately 4 hours to 18 hours. When the interaction between SIRs and their target antigen results in activation of the NFAT pathway, GFP expression is induced. […] GFP expression was monitored by FACS analysis. The Jurkat-NFAT-GFP (parental) cells were used as control. The structure of different constructs can be determined based on their names. […] The sequence of the other constructs in the table can be similarly determined from their names and by referring to the different Tables of this disclosure that provide the names and SEQ ID NO of the different modules. Alternatively, the composition and modular architecture of the different SAR constructs can be determined from their sequences by bioinformatics tools, including using nucleic acid and amino acids homology searches. A SAR is considered positive in the assay in case the SAR expressing Jurkat-NFAT-GFP cells show greater % GFP positive cells when cultured with the target cell line as compared to parental Jurkat-NFAT-GFP cells. […] In general, the number +/-, +, 2+, 3+, 4+, 5+ refer to approximately 5%, 10%, 20%, 30%, 40% and 50% GFP positive cells. The % of GFP induction in the above assay is dependent not only the relative strength of the SAR but also, among other factors, on the relative level of expression of the SAR in the JNG cells and the relative level of expression of the target antigen in the target cell line. To control for the difference in gene transduction efficiency of the different SAR constructs, the experiment was conducted with JNG cells transduced with SAR constructs co-expressing a drug resistance gene (e.g., puromycin or PAC) followed by drug selection to generate a stable population of SAR-expressing cells. It is to be noted that the drug resistance gene (e.g., PAC) in the SAR constructs is optional and in vivo studies were conducted with SAR constructs lacking the PAC gene.
For B1, the “NFAT-GFP ASSAY: Raji-CD19-KO” value was 4+ (refer to approximately 5%, 10%, 20%, 30%, 40% and 50% GFP positive cells). In the case of B2, the “NFAT-GFP ASSAY: Raji-CD19-KO” value is reported as 3+ (refer to approximately 5%, 10%, 20%, 30%, 40% and 50% GFP positive cells). B3 was tested, and the “NFAT-GFP ASSAY: Raji-CD19-KO” value was 4+ (refer to approximately 5%, 10%, 20%, 30%, 40% and 50% GFP positive cells). B4 was tested, and the “NFAT-GFP ASSAY: Raji-CD19-KO” value was “+ (refer to approximately 5%, 10%, 20%, 30%, 40% and 50% GFP positive cells)”.
